# Tests used:
# [1] = tested on: GA-PFRAL-S-GB; assay: Cleavage kinetics of GA-PFRAL-S-GB by position 166 mutant versus parent enzyme; assay type: biochemical; conditions: no azide
# Description: Mutants were selected that cleave the substrate GA-PFRAL-S-GB in response to azide. Phage were bound to the GA-PFRAL-S-GB substrate and collected on IgG-Sepharose. The ability to hydrolyze the fusion protein is selected by washing the beads in 1 mM azide for 5 minutes in the release step. Phage are therefore released or retained from the resin based on the kinetics with which they cleave GA-PFRAL from GB under the triggering condition. Released phage were collected on HSA-Sepharose, acid eluted, neutralized, used to infect fresh E. coli cells, plated out, and colonies counted. Three cycles of selection were carried out. After three rounds of selection, the consensus amino acid at position 166 was threonine. The kinetic properties of the T166 mutant were compared to parent enzyme (SBT189), which has a serine at 166. The T166 mutant hydrolyzed GA-PFRAL-S-GB 1.5-times faster than SBT 189 in 1 mM azide. […] Thus the ratio of triggered rate to intrinsic rate was increased 5-fold by optimizing a single amino acid position in the S1 subsite. This ratio is a quantitative measure of how tightly the enzyme is regulated by the trigger.
# [2] = tested on: GB-LFRAL-SA-GFP; assay: Digestion of GB-LFRAL-SA-GFP fusion protein in E. coli extract (protein gel, MALDI-MS); assay type: biochemical; conditions: 20 μM fusion protein, 50 nM SBT189, 10 mM azide, 0.1M KPi, pH 7.2, 22° C.
# Description: In order to evaluate sequence specificity of SBT189 for the cognate sequence identified by phage display, a gene was constructed to direct the synthesis of a fusion of the 56 amino acid B domain (GB) of streptococcal Protein G to a linker comprising the cognate sequence LFRAL-SA (SEQ ID NO:5) followed by GFP. Accordingly, the protein is denoted “GB-LFRAL-SA-GFP”.
# Timepoints were collected as indicated. The fusion protein (20 μM) was mixed with 50 nM of SBT189 in 10 mM azide, 0.1M KPi, pH 7.2, at 22° C.
# [3] = tested on: GA-PLFRAL-S-GB; assay: Acylation kinetics (GB release) of pre-formed enzyme-substrate complex monitored by fluorescence; assay type: biochemical
# Description: In panels A-C, RSUB1(AF350) represents subtilisin SBT189 conjugated to AF350).
# The acylation reaction: Step 2 describes conversion of the ternary complex into an acyl-enzyme with the concomitant release to the C-terminal portion of the substrate. With substrates used in phage display, the GB domain is released concomitantly with the acylation step. If a fluorescent reporter group is attached to subtilisin, a decrease in energy transfer enables time-dependent quantitation of acylation.
# [4] = tested on: Dabcyl-EEDKLFRAL-SATE(EDANS)G; assay: Transient state kinetics with self-quenched FRET peptide: deacylation; assay type: biochemical; conditions: SBT189 in 50 mM azide
# Description: The deacylation reaction and product release: A self-quenched FRET peptide that becomes highly fluorescent when cleaved (Dabcyl-EEDKLFRAL-SATE(EDANS)G (SEQ ID NO:16)) was synthesized. This peptide has been used to determine transient state kinetic parameters. Deacylation of SBT189 in 50 mM azide is faster (3.3 s^−1) than the wild type counterpart (1.8 s^−1). The rate of product (Dabcyl-EEDKLFRAL; (SEQ ID NO:17)) release is 6 s^−1 and Kp is 1.2 μM. Product binding is not influenced by azide concentration. Strong product binding of subtilisin-phage to GA-PCOGNATE- is used for the collection of active mutants in the release step in phage selection (see FIG. 5). Binding is constitutive at this step, however, and is not used to increase selectivity.
# [5] = target: subtilisin; conditions: competitive inhibitor of active subtilisin; cited from earlier work
Molecule,cleavage rate in the absence of azide [1],processing of the fusion protein [2],"rate of GB release ([3]; 0.1M KPO4, pH 7.2, no azide, 22° C.)",rate of GB release ([3]; saturating azide),azide dependent rate enhancement ([3]; saturating azide versus no azide),deacylation rate [4],Ki [5]
"SBT189: D32A mutant of subtilisin, azide-triggered protease (SEQ ID NO: 27) (protein, Subtilisin related sequence) AKCVSYGVAQIKAPALHSQGYTGSNVKVAVLASGIDSSHPDLNVAGGASFVPSETNPFQDNNSHGTHVAGTVLAVAPSASLYAVKVLGADGSGQASWIINGIEWAIANNMDVINMSLGSPSGSAALKAAVDKAVASGVVVVAAAGNSGTSGSSSTVSYPAKYPSVIAVGAVDSSNQRAPFSSVGPELDVMAPGVSICSTLPGGKYGALSGTSMASPHVAGAAALILSKHPNWTNTQVRSSLENTATKLGDSFYYGKGLINVEAAAQ",0.12 min⁻¹,correctly and specifically processed,0.0019 s⁻¹,6.4 s⁻¹,about 3300 fold,3.3 s⁻¹,–
"77 amino acid prodomain: 77 amino acid subtilisin prodomain (SEQ ID NO: 25) (protein, listed as Bacillus amyloliquefaciens) AGKSNGEKKYIVGFKQTMSTMSAAKKKDVISEKGGKVQKQFKYVDAASATLNEKAVKELKKDPSVAYVEEDHVAHAY",–,–,–,–,–,–,540 nM

# — patent US20160053248A1, “SYSTEMS AND METHODS FOR EVOLVING ENZYMES WITH DESIRED ACTIVITIES” (Potomac Affinity Proteins, LLC, priority 2009, published 2016)
